Source: patent US5736363A, “IGF-II analogues” (British Bio-technology Limited, priority 1991, dated 1998)

What was measured:
type 1 IGF receptor = biological target: T1, type 1 IGF receptor (Mus musculus, UniProt Q60751); experiment: Type 1 IGF receptor binding assay on Swiss mouse 3T3 cells; conditions: for IC50, inhibits binding of 125I-IGF-II (type 1 IGF receptor): mutant value holds for material from either secretion or refolding route
T1 construct: endogenous in cells; host or cells: Swiss mouse 3T3 cells
Experimental: Swiss 3T3 cells at 5×10^4 cells/ml were seeded into 24 well plates at 5×10^3 cells/well in DMEM containing 10% FCS and incubated at 37°. The cells were used for assay after 5-6 days. For the binding assay, the growth medium was flicked out of the plate, and the cells washed twice with binding medium (serum free DMEM containing 25 mM HEPES, 1 mg/ml BSA and 2 mM glutamine). A further 400 μl of binding medium was added to each well along with 50 μl of sample or IGF-II standard (Bachem). Twofold dilutions of IGF-II were used for the standard curve to give final concentrations in the well from 300-1.56 ng/ml. […] The plate was incubated at room temperature for 2 hr., the assay medium removed and the cells washed four limes in PBS containing 1 mg/ml BSA and 0.1 μM KI. The plates were blotted dry and the cells solubilised for by the addition of 750 μl 0.5M NaOH containing 0.2% w/v Triton X100. After 15 min the lysed samples were transferred to tubes and the residual counts determined using a gamma counter.

type 2 IGF receptor = biological target: T2, type 2 IGF receptor (Rattus norvegicus, UniProt G3V824); experiment: Type 2 IGF receptor binding assay on H35 (rat hepatoma) cells
T2 construct: endogenous in cells; host or cells: H35 (rat hepatoma) cells
Experimental: Binding to the type 2 IGF receptor was assessed on H35 (rat hepatoma) cells, see FIG. 11. Cells at 5×10^5 cells/ml were seeded into 24 well plates at 5×10^4 cells/well in DMEM containing 0.5% FCS and incubated at 37°. The cells were used for assay after 2-3 days. For the binding assay, the growth medium was flicked out of the plate, and the cells washed once with binding medium (serum free DMEM containing 25 mM HEPES, 1 mg/ml BSA and 2 mM glutamine).
A further 400 μl of binding medium was added to each well along with 50 μl of sample or IGF-II standard (Bachem). Twofold dilutions of IGF-II were used for the standard curve to give final concentrations in the well from 300-1.56 ng/ml. Labelled IGF-II was then added (50 μl of […]) to give a final concentration of 2 ng/ml and a total of about 40,000 dpm per well. The plate was incubated at room temperature for 3 hr., the assay medium removed and the cells washed four times in Hanks buffered salt solution containing 1 mg/ml BSA. The plates were blotted dry and the cells solubilised for by the addition of 750 μl 10 mM Tris HCl, 5 mM EDTA, 0.2% w/v SDS. After 15 min the lysed samples were transferred to tubes and the residual counts determined using a gamma counter.

insulin receptor = biological target: T3, insulin receptor (Rattus norvegicus, UniProt P15127); experiment: Insulin receptor binding assay on H35 cells
T3 construct: endogenous in cells; host or cells: H35 (rat hepatoma) cells

[1] = refolded material (HRP fusion route)

T3 sequence (P15127 27-759 limits assumed): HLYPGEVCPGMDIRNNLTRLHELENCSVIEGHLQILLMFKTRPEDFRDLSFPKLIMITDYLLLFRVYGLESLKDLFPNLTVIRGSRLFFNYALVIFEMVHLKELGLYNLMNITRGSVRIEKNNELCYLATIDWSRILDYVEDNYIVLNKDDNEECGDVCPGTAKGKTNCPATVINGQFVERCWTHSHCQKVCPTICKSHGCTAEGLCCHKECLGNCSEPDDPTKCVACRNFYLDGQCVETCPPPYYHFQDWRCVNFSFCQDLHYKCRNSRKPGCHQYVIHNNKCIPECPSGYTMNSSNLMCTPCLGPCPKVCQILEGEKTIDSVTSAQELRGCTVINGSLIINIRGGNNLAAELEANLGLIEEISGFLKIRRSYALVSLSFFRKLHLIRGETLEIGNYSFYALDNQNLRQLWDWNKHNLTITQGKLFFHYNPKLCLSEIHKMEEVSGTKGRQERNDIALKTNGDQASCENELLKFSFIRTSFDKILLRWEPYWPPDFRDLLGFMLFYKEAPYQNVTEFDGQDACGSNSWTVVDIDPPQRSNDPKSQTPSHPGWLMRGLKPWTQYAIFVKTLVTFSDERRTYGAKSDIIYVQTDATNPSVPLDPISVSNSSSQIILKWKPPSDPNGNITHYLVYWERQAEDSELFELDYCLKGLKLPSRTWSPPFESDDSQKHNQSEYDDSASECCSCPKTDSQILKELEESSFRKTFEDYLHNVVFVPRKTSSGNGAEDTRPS
T3 sequence (P15127 764-1383 partner limits assumed): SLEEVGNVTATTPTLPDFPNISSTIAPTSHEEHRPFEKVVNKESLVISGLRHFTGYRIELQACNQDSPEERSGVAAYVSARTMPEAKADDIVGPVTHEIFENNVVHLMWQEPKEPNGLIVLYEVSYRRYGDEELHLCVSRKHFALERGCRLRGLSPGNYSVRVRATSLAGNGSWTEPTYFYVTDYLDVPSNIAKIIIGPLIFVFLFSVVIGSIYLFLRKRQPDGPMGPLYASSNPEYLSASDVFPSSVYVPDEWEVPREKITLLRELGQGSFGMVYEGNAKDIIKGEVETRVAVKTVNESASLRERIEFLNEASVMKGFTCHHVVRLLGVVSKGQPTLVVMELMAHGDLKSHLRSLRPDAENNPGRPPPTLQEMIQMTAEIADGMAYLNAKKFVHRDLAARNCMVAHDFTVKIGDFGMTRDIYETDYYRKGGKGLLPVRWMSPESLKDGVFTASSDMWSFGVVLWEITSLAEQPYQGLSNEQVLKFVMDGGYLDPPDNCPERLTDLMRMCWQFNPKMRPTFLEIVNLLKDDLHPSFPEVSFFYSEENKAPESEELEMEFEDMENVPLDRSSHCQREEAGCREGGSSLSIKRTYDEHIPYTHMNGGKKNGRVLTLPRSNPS
T1 sequence (Q60751 31-737 limits assumed): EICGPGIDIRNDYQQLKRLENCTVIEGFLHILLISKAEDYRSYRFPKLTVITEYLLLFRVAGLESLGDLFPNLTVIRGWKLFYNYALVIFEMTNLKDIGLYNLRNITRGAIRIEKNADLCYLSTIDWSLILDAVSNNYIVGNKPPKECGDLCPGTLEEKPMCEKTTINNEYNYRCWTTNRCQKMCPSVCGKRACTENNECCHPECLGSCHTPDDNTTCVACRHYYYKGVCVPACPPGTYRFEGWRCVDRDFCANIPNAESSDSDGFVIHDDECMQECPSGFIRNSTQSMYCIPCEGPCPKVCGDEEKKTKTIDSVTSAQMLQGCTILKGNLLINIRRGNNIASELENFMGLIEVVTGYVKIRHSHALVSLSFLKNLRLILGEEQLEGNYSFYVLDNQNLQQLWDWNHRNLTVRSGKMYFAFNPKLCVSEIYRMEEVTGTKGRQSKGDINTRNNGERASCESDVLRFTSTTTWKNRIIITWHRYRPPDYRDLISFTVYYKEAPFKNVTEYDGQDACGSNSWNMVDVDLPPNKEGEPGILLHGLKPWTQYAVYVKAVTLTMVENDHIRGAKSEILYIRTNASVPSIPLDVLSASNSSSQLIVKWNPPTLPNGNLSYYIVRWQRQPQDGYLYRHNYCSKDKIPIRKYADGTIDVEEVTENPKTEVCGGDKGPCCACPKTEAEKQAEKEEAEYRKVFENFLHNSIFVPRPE
T1 sequence (Q60751 742-1373 partner limits assumed): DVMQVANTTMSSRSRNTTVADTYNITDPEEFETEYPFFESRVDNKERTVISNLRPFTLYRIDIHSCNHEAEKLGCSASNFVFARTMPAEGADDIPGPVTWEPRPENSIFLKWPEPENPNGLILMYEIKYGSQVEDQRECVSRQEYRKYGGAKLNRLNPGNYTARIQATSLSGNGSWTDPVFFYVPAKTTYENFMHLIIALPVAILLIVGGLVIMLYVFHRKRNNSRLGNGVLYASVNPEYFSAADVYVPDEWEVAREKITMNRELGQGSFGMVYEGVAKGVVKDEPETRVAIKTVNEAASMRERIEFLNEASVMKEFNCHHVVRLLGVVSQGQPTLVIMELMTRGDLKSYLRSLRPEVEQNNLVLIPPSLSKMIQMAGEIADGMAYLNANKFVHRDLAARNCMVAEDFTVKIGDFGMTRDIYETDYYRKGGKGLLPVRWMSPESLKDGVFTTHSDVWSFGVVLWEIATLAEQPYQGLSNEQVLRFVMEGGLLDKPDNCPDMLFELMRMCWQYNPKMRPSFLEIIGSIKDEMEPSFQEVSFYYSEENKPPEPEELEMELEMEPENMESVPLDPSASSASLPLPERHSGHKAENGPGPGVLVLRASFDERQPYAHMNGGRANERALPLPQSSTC

affinity for the type 1 IGF receptor versus native IGF-II (type 1 IGF receptor) | IC50, inhibits binding of 125I-IGF-II (type 1 IGF receptor) (type 1 IGF receptor) | affinity for the type 2 IGF receptor versus native IGF-II (type 2 IGF receptor) | IC50, inhibits binding of 125I-IGF-II (type 2 IGF receptor) (type 2 IGF receptor; [1]) | IC50, inhibits binding of 125I-IGF-II (type 2 IGF receptor) (type 2 IGF receptor; secreted material) | IC50, inhibits binding of 125I-insulin (insulin receptor) (insulin receptor; [1]) | IC50, inhibits binding of 125I-insulin (insulin receptor) (insulin receptor; secreted material) | IC50, inhibits binding of 125I-IGF-II (type 2 IGF receptor) (type 2 IGF receptor; commercial reference standard (Bachem)) | Substance
comparable to native IGF-II | 210 ng/mL | comparable to native IGF-II | 60 ng/mL | 30 ng/mL | 1300 ng/mL | 1600 ng/mL | – | IGF-II (Q^37 Q^38): IGF-II with the modifications Arg37Gln and Arg38Gln
– | 100 ng/mL | – | 30 ng/mL | – | 160 ng/mL | – | – | wild-type refolded material: wild-type IGF-II made by the HRP fusion route and refolded [reference compound]
– | 60 ng/mL | – | – | – | – | – | 18 ng/mL | wild-type standard (Bachem): recombinant IGF-II from a commercial supplier (Bachem) used as a reference standard [reference compound]
